Experimental data as given in patent publication US20210380687A1 (ALBERT EINSTEIN COLLEGE OF MEDICINE, published 2021).
Blank lines part the entries; values can stand above or below the binder they belong to.

Target: T1, human CEACAM1 (as used in Surface Plasmon Resonance) (human)
T1 chain: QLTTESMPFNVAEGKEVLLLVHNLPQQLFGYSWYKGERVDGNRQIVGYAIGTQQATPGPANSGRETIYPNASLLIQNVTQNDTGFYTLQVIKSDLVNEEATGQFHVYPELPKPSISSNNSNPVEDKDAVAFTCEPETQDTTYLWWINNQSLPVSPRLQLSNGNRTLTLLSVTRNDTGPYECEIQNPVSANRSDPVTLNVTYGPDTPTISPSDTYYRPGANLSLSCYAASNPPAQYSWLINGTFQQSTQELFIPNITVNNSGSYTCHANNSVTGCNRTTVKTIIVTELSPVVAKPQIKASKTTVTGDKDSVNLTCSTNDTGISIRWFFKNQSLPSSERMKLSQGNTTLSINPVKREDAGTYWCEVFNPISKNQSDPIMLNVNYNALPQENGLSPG
Test: Surface Plasmon Resonance

Kd: 3.88 nM
koff: 0.000193 s⁻¹
kon: 49600 M⁻¹ s⁻¹
B1: monoclonal antibody 25C8 (antibody, V domains shown)
VH: QVQLQQSGAELVRPGTSVKVSCKASGYAFTIYLIEWVKQRPGQGLEWIGVINPGSGGTNYNEKFKGKATLTADKSSSTAFMQLSSLTSDDSAVYFCARSYYYGSFAMDYWGQGTSVTVSQ
VL: DVQMTQTISSLSASLGDRVTISCRASQDIGNYLNWYQQKPDGTVKLLIYYTSRLHSGVPSRFSGSGSGTDYSLTISNLEQEDIATYFCQQGNTLRTFGGGTKLEIKR
notes: also called mAb 25C8

Kd: 1.42 nM
koff: 0.000108 s⁻¹
kon: 76100 M⁻¹ s⁻¹
B2: monoclonal antibody 36B11 (antibody, V domains shown)
VH: QIQLVQSGPDLKKPGETVKISCKASGYIFRNYGMNWVKQAPGKGLKWMGWINTYTGEPTYADDFKGRFAFSLETSASTAYLQINNLKNEDMATYFCARDCGTSHYYAMDYWGQGT
VL: DIQMTQTTSSLSASLGDRVTISCRASQDISNYLNWYQQKPDGTVKLLIYYTSRLHSGVPSRFSGSGSGTDYSLSISNLEQEDIATYFCQQGNTFPLTFGAGTKLDLKR
notes: the VH entry is cut short at its C-terminus; also called mAb 36B11

Kd: 0.589 nM
koff: 0.000482 s⁻¹
kon: 818000 M⁻¹ s⁻¹
B3: monoclonal antibody 38B5 (antibody, V domains shown)
VH: QIQLVQSGPELKKPGETVKISCKASGYIFRNYGMNWVKQAPGKGLKWMGWINTYTGEPTYADDFKGRFAFSLETSASTAYLQINNLKNEDMATYFCARRGWLLTGGAMDYWGQGTSVTVSQ
VL: DIQMTQSPSSLSASLGERVSLTCRASQDIGSSLNWLQQEPDGTIKRLIYATSSLDSGVPKRFSGSRSGSDYSLTISSLESEDFVDYYCLQYVSSPWTFGGGTKLEIKR
notes: also called mAb 38B5
